# Assay results from patent publication US20030092631A1 (Genentech, published 2003).
# Bridge positions count the residues as written; N and C are the ends. Ends that are not written are not given here.
# B1: F1-1 (peptide)
# peptide: RNCFESVAALRRCMYG
# modifications: disulfide 3-13
# notes: synthetic peptide; also called IGF-F1-1
# B2: F1-3 (peptide)
# peptide: FECLTSVEALRGCMYG
# notes: synthetic peptide
# B3: F1-2 (peptide)
# peptide: MDCLASVEALKWCMYG
# notes: synthetic peptide
# How the values were obtained:
# IGF-1 [1] = target: T1, IGF-1 (human, UniProt P05019 49-118); experiment: monovalent phage ELISA; soluble IGF-1 titrated against peptide-phage binding to immobilised IGF-1
# T1 sequence (P05019 49-118): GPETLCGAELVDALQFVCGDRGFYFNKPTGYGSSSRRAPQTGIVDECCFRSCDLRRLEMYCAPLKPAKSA
# IGF-1 [2] = target: T1, IGF-1; experiment: cell-based or functional assay
# [3] = target: T2, phage displaying human IGF-1 (phage vector pIGF-g3) (human, UniProt P05019 49-118); experiment: competition phage ELISA: peptide against IGF-1 phage binding to IGFBP-3 on plate
# T2 construct: Construct as in Dubaquie and Lowman; also called IGF-1 displaying phage; Phage IGF-1; not shown: g3 of the phage vector pIGF-g3 (M13 gene III protein)
# T2 sequence (P05019 49-118 limits assumed): as the sequence (P05019 49-118) above
# Protocol: (§1) The IGF-1 displaying phage was titered against IGF bp1 and bp3 for a 500-1000× dilution for preincubation with serial dilutions the synthesized peptides and binding protein standards for 45 minutes. Immunosorbant plates were coated with IGF binding proteins and blocked with 0.5% TWEEN®-20 detergent and PBS and washed as above. The samples were added to the plates for 20 minutes, washed and detected as above. The experimental IC50 values are in Table 5.
# IGF-1 [4] = target: T1, IGF-1; experiment: displacement of 125I-IGF-1 (2 nM) from receptors on MCF-7 cells
# Protocol: Cell were passaged weekly in media containing a 50/50 mix of high-glucose DMEM/ Ham's F12, with 10% fet al bovine serum and 10 mM HEPES pH 7.2. Cells were plated and grown overnight maintained at 37° C. and 5% CO₂. For IGF-1 iodination, 50 μg of IGF-1 was diluted into 200 μL of PBS and added to a tube coated with 100 μg of IODOGEN® 1,3,4,6-tetrachloro-3a-6β-diphenylglycouril) (Pierce Chemical Co.), incubated with 1 mCi of ¹²²⁵-Nal (10 μL) at room temperature for 10-15 minutes. Synthesized peptides and binding protein controls were preincubated with 2 nm ¹²⁵I IGF-1 for 40 minutes at 37° C. The samples were added to cells for 30 minutes. The cells were washed with media and lysed with 1N NaOH.
# [5] = target: T2, phage displaying human IGF-1 (phage …); experiment: competition phage ELISA: peptide against IGF-1 phage binding to IGFBP-1 on plate
# Protocol: as §1
molecule,measurement,setting,value
… (from UniProt P01241 27-217) (peptide),IC50,IGF-1 [1],209 µM
B1,IGF-1 KIRA,IGF-1 [2],84.9 µM
same,Insulin KIRA,IGF-1 [2],5.48 µM
same,IC50,[3],2.93 µM
same,IC50,IGF-1 [4],5.12 µM
same,IC50,[5],1.4 µM
B2,IGF-1 KIRA,IGF-1 [2],102 µM
same,Insulin KIRA,IGF-1 [2],66.1 µM
same,IC50,[3],12.8 µM
same,IC50,IGF-1 [4],45.7 µM
same,IC50,[5],11.7 µM
B3,IGF-1 KIRA,IGF-1 [2],20 µM
same,Insulin KIRA,IGF-1 [2],32.6 µM
same,IC50,[3],9.2 µM
same,IC50,IGF-1 [4],15.3 µM
same,IC50,[5],15.5 µM
